Experiment [1] deals with His6-DDB1ΔB-His6-CRBN complex (human) (UniProt Q16531). Briefly: FP lenalidomide-Atto565 displacement from DDB1ΔB-CRBN, dBET6, with and without BRD4BD2.
For experiment [2] the target is unchanged. The experiment is described as follows: FP lenalidomide-Atto565 displacement from DDB1ΔB-CRBN, dBET23, with and without BRD4BD2.
For experiment [3] the target is unchanged. Briefly: FP lenalidomide-Atto565 displacement from DDB1ΔB-CRBN, dBET57, with and without BRD4BD2.

Sequence of His6-DDB1ΔB-His6-CRBN complex (human) (Q16531 other isoform, or with tags, fused parts or gaps mutant, chain 1 of 2): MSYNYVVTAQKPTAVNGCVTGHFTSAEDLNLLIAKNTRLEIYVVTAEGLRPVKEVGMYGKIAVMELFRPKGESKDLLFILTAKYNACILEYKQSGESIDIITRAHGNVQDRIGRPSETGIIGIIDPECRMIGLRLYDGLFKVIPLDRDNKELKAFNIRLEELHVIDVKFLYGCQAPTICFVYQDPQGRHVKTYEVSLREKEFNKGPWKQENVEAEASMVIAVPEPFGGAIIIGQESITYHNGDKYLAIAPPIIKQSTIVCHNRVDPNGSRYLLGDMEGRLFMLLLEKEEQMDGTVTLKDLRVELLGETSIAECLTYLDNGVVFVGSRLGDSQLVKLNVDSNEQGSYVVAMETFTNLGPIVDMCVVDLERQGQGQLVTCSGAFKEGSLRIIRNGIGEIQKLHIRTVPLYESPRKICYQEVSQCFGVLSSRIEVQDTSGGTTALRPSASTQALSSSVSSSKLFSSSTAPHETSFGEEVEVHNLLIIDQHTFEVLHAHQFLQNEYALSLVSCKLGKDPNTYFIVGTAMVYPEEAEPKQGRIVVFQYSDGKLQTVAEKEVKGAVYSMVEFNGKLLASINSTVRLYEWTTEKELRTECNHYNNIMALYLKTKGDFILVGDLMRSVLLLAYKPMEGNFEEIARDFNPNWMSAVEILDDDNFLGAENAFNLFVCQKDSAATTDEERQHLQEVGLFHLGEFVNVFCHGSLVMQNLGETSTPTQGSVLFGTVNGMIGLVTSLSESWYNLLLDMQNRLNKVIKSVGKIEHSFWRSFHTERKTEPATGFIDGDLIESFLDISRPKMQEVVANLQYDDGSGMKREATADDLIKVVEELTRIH
Sequence of His6-DDB1ΔB-His6-CRBN complex (human) (Q96SW2 whole entry, stated change not applied, chain 2 of 2, further chain): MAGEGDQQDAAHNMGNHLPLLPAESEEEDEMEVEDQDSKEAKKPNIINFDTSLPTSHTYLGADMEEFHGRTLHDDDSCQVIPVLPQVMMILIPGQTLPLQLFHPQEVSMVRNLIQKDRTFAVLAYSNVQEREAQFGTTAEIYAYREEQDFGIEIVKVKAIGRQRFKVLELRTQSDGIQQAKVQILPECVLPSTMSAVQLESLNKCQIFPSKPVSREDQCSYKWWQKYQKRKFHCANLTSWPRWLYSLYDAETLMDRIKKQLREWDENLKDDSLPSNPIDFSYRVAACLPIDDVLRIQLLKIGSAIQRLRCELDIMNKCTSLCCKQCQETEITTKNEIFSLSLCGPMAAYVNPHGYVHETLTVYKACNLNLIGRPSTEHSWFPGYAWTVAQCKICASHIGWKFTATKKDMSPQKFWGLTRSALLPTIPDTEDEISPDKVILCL

With “BRD4BD2 (second bromodomain of human BRD4) (from UniProt O60885 333-460)”, the apparent cooperativity factor αapp (IC50[binary]/IC50[ternary]) in experiment [1] is 0.2; in experiment [2], less than 0.1; in experiment [3], less than 0.1.

The values are drawn from patent publication US20200190136A1, “METHODS FOR GENERATING SMALL MOLECULE DEGRADERS AND DIMERIZERS” (DANA-FARBER CANCER INSTITUTE, INC., priority 2017, published 2020).
